{"source": "patent US20060216236A1", "about": "(published 2006)", "binders": {"B1": {"name": "Mab LM609 (anti-αvβ3) (antibody, V domains shown)", "VH": "EVQLVESGGGLVKPGRSLRLSCAASGFAFSSYDMSWVRQIPEKRLEWVAKVSSGGGSTYYLDTVQGRFTISRDNAKNTLYLQMSSLNSEDTAMYYCARHNYGSFAYWGQGTLVTVSA", "VL": "DIVLTQSPATLSVTPGDSVSLSCQASQSISNHLHWYQQKSHESPRLLIKYRSQSISGIPSRFSGSGSGTDFALSINSVETEDFGMYFCQQSGSWPHTFGGGTKLEIK"}}, "biological_target": "integrin αvβ3 on human tumor cells (ECV304 bladder carcinoma, M21 melanoma) (human, UniProt P06756 31-1048; P05106 27-788)", "sequence (P06756 31-1048, chain 1 of 2)": "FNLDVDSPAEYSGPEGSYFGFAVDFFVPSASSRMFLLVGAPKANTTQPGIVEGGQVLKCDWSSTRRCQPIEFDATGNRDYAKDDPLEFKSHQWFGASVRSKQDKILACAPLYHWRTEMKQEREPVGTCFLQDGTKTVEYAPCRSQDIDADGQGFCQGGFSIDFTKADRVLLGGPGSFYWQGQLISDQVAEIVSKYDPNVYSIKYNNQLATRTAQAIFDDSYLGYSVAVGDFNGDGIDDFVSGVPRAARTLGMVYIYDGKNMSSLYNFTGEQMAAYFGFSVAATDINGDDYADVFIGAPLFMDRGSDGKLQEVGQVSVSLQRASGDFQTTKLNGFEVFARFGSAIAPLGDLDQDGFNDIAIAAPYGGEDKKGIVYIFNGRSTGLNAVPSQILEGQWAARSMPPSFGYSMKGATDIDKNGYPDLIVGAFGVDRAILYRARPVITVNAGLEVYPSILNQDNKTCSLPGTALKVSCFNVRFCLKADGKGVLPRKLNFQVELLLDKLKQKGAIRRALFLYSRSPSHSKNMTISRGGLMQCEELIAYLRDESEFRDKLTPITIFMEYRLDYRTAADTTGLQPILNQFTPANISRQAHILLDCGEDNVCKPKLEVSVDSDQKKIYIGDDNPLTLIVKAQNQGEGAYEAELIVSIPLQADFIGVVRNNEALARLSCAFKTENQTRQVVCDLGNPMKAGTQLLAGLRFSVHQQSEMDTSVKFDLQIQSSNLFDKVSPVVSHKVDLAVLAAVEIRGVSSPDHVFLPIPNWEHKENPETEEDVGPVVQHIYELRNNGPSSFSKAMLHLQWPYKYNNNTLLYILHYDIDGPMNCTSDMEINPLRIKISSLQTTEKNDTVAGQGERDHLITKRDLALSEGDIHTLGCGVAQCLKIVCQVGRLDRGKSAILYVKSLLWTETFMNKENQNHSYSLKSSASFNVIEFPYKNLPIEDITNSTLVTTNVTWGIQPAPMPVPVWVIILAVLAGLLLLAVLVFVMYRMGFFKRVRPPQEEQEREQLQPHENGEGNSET", "sequence (P05106 27-788, chain 2 of 2)": "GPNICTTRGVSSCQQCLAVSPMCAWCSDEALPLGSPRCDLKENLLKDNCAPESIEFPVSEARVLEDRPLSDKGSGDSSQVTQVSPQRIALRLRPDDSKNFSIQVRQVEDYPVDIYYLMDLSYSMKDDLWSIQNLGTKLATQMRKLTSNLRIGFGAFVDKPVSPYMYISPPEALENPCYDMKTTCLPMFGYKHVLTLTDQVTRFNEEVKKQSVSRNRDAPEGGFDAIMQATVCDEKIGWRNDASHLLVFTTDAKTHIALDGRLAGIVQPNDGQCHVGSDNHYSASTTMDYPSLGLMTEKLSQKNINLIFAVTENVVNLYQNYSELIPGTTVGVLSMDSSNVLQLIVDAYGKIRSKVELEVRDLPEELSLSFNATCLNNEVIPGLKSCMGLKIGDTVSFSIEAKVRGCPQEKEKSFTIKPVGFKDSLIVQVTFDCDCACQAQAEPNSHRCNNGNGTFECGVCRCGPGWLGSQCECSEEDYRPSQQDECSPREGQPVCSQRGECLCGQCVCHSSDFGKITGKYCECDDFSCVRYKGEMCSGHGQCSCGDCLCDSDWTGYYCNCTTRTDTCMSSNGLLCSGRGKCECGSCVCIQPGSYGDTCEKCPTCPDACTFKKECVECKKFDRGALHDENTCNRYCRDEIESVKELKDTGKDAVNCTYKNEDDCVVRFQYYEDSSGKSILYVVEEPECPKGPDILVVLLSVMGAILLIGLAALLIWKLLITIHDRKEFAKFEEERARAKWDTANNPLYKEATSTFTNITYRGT", "experiment": "cell-based or functional assay", "data": [{"binder": "B1", "values": [{"measurement": "relative level of IGFBP-4 RNA (real time PCR) in M21 cells on denatured collagen type-IV", "result": "~8", "unit": "fold"}, {"measurement": "relative level of TSP-1 RNA (real time PCR) in M21 cells on denatured collagen type-IV", "result": "~8", "unit": "fold"}]}]}
